Data reported in paper PMC10933793.
Ends that are not written are not given here.

Target: PL^pro domain of SARS-CoV-2 nsp3 (E746-T1063) (SARS-CoV-2)

B1: K193-branched IRF3_(189-197)-ISG15 oligopeptide 4 (peptide)
chain 1: ENPLKRLLV-NH2
chain 2: LSTVFMNLRLRGG
modifications: also: lactam at chain A 5 at chain B 13 to a chain's C-terminus
  PL^pro-catalysed isopeptide amide bond hydrolysis by SPE-MS, time course to ~240 min (0.2 uM PL^pro, 2.0 uM peptide, 50 mM Tris pH 8.0, ambient temperature): 20%
